Reference: patent US20220275089A1 (AKESO PHARMACEUTICALS, published 2022)

Experiments:
FcγRIIb [1] = target: T1, FcγRIIb (UniProt P31994 43-217, limits assumed); assay: BLI (Fortebio Octet), FcγRIIb on NTA sensor, antibody 12.5-200 nM, 1:1 fit
T1 construct: also called CD32b
T1 sequence (looked up): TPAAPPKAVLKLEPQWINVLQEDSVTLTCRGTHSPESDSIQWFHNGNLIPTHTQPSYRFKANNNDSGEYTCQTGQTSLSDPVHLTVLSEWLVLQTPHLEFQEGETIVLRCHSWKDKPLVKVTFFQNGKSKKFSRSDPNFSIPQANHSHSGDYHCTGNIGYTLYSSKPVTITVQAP
Method: (§1) 5 μg/mL FcγRIIb was immobilized on the NTA sensor at an immobilization height of about 1.0 nm. […] The antibody was dissociated in the buffer for 60 s. The sensor was refreshed in 10 mM glycine pH 1.7 and 10 nM nickel sulfate. The temperature was 30° C. and the frequency was 0.6 Hz. The data were analyzed by 1:1 model fitting to obtain affinity constants.

C1q [2] = target: T2, C1q (UniProt P02745 23-245; P02746 28-253; P02747 29-245); assay: BLI (Fortebio Octet), antibody on FAB2G sensor, C1q 1.25-20 nM, 1:1 fit
T2 construct: also called serum complement C1q; complement C1q
Method: (§2) 50 μg/mL antibody was immobilized on the FAB2G sensor at an immobilization height of about […]. […] The antigen and antibody were dissociated in the buffer for 60 s. The sensor was refreshed 4 times in 10 mM glycine pH 1.7, each for 5 s. The shaking speed of the sample plate was 1000 rpm, the temperature was 30° C. and the frequency was 0.6 Hz. The data were analyzed by 1:1 model fitting to obtain affinity constants. The data acquisition software was Fortebio Data Acquisition 7.0, and the data analysis software was Fortebio Data Analysis 7.0.

FcγRI [3] = target: T3, FcγRI (UniProt P12314 16-288, limits assumed); assay: BLI (Fortebio Octet), FcγRI on HIS1K sensor, antibody 3.12-50 nM, 1:1 fit
T3 construct: construct not described; also called CD64; FcγR1
Method: (§3) A 1 μg/mL FcγRI solution (from Sinobio) was added to the HIS1K sensor to immobilize the FcγRI on the sensor surface for 50 s. […] The sensor with immobilized antigen was equilibrated in the buffer for 60 s, and then the binding of the immobilized FcγRI on the sensor to the antibodies was determined for 120 s; the dissociation of FcγRI from the antibodies was determined in 120 s. The temperature was 30° C. and the frequency was 0.3 Hz. The data were fitted and analyzed with a 1:1 model to obtain the affinity constants to FcγRI for the antibodies.

FcγRIIb [4] = target: T1, FcγRIIb; assay: BLI (Fortebio Octet), FcγRIIb immobilized on NTA sensor, antibody in solution at 12.5-200 nM
Method: as §1

FcγRIIIa_V158 = target: T4, FcγRIIIa_V158 (UniProt P08637 17-208); assay: BLI (Fortebio Octet), FcγRIIIa_V158 immobilized on HIS1K sensor, antibody in solution at 31.25-500 nM
T4 construct: V158 polymorphic form (mature numbering)
Method: (§4) 5 μg/mL FcγRIIIa_V158 was immobilized on the HIS1K sensor for 120 s. […] The antibody was dissociated in the buffer for 60 s. The sensor was refreshed 4 times in 10 mM glycine pH 1.5, each for 5 s. The temperature was 30° C. and the frequency was 0.3 Hz. The data were analyzed by 1:1 model fitting to obtain affinity constants.

FcγRI [5] = target: T3, FcγRI; assay: BLI (Fortebio Octet), FcγRI immobilized on HIS1K sensor, antibody in solution at 3.12-50 nM
Method: as §3

C1q [6] = target: T2, C1q; assay: BLI (Fortebio Octet), antibody immobilized on FAB2G sensor, C1q in solution at 1.25-20 nM
Method: as §2

FcγRIIIa_F158 = target: T5, FcγRIIIa_F158 (UniProt P08637 17-208); assay: BLI (Fortebio Octet), FcγRIIIa_F158 immobilized on HIS1K sensor, antibody in solution at 31.25-500 nM
T5 construct: F158 polymorphic form
Method: as §4, with “FcγRIIIa_F158” for “FcγRIIIa_V158”

FcγRIIa_H131 = target: T6, FcγRIIa_H131 (UniProt P12318 34-218); assay: BLI (Fortebio Octet), FcγRIIa_H131 immobilized on NTA sensor, antibody in solution at 12.5-200 nM
T6 construct: H131 polymorphic form
T6 sequence (looked up): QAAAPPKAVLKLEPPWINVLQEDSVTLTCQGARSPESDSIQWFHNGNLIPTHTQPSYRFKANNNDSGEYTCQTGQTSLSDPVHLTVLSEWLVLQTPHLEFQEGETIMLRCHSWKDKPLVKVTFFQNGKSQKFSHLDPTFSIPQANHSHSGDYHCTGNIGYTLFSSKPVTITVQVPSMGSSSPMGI
Method: as §1, with “FcγRIIa_H131” for “FcγRIIb”

T2 sequence (P02745 23-245 limits assumed, chain 1 of 3): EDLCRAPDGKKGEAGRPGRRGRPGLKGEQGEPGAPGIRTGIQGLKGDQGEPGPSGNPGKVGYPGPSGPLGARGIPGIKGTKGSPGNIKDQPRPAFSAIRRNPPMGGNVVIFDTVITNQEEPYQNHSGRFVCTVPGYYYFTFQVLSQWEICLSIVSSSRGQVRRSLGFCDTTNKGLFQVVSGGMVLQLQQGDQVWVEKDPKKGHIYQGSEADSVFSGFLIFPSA
T2 sequence (P02746 28-253 limits assumed, chain 2 of 3): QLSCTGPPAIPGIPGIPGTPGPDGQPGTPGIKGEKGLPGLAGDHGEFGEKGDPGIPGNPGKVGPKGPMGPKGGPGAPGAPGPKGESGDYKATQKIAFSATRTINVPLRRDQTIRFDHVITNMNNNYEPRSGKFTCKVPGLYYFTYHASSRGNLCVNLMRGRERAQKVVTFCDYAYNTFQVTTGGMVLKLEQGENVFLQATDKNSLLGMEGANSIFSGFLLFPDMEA
T2 sequence (P02747 29-245 limits assumed, chain 3 of 3): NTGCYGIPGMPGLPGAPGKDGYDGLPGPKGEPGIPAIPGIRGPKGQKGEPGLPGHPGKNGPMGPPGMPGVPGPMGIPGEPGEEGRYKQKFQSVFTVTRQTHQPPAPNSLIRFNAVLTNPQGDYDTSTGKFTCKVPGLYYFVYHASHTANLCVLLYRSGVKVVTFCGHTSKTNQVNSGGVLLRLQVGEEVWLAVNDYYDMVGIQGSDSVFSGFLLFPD
T3 sequence (P12314 16-288 limits assumed): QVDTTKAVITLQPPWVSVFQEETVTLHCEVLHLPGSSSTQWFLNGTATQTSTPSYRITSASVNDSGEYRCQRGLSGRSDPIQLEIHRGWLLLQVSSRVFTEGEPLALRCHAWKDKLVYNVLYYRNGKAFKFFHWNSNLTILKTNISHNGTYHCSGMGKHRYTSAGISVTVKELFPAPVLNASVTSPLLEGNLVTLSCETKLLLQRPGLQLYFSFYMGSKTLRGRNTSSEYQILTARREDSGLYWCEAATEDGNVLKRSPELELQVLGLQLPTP
T4 sequence (P08637 17-208 F176V limits assumed): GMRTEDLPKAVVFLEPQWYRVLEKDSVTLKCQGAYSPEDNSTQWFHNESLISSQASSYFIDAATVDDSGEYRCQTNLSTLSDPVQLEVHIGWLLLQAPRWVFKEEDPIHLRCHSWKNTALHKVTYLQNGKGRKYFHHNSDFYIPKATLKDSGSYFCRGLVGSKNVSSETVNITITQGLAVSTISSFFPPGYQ
T5 sequence (P08637 17-208 limits assumed): as the sequence (P08637 17-208 F176V limits assumed) above, with V160F counted along it

B1: BiAb004(hG1WT) (bispecific antibody, human IgG1, kappa)
heavy: not shown
light: DIQMTQSPSSMSASVGDRVTFTCRASQDINTYLSWFQQKPGKSPKTLIYRANRLVSGVPSRFSGSGSGQDYTLTISSLQPEDMATYYCLQYDEFPLTFGAGTKLELKRTVAAPSVFIFPPSDEQLKSGTASVVCLLNNFYPREAKVQWKVDNALQSGNSQESVTEQDSKDSTYSLSSTLTLSKADYEKHKVYACEVTHQGLSSPVTKSFNRGEC
notes: IgG-scFv (Morrison format); also called BiAb004(M); BiAh004(M)
- Kd (FcγRIIb [1]): 56.1 nM
- Kd (C1q [2]): 2.53 nM
- Kd (FcγRI [3]): 5.92 nM

B2: BiAb004(hG1TM) (bispecific antibody, human IgG1, kappa)
heavy: not shown
light: B1 light
notes: IgG-scFv (Morrison format), anti-PD-1 IgG1 with an anti-CTLA4 scFv on the C terminus of each heavy chain
- binding result (FcγRIIb [4]): no binding (tested: 200 nM)
- binding result (FcγRIIIa_V158): no binding (tested: 500 nM)
- binding result (FcγRI [5]): no binding (tested: 50 nM)
- binding result (C1q [6]): no binding (tested: 20 nM)
- binding result (FcγRIIIa_F158): no binding (tested: 500 nM)
- binding result (FcγRIIa_H131): no binding (tested: 200 nM)

B3: 5C10H2L2-IgG1mt (antibody)
chain 1: not shown
chain 2: EIVLTQSPDTLSVTPKEKVTLTCRASQSIGTNIHWFQQKPGQSPKLLIKYASESISGVPSRFSGSGSGTDFTLTINSVEAEDAATYYCQQSNSWPYTFGQGTKLEIKRTVAAPSVFIFPPSDEQLKSGTASVVCLLNNFYPREAKVQWKVDNALQSGNSQESVTEQDSKDSTYSLSSTLTLSKADYEKHKVYACEVTHQGLSSPVTKSFNRGEC
- Kd (C1q [2]): 4.43 nM
- koff (C1q [2]): 0.0105 s⁻¹
- kon (C1q [2]): 2.38e+06 M⁻¹ s⁻¹
